Laboratory results from article PMC12724367 (Applied and Environmental Microbiology, 2025).

How the values were obtained:
PdG-D-LDH [1] = target: T1, PdG-D-LDH (Nocardiopsis eucommiae, UniProt A0A975LBX7); experiment: X-ray crystal structure; HPLC of released flavin; assay type: binding; details: non-covalent, active site; co-purified
T1 construct: gene KGD82_12890; N-terminal His6 tag (pET15b), codon-optimised synthetic gene, E. coli Tuner; no tag cleavage told; homodimer (97 kDa) fraction

PdG-D-LDH [2] = target: T1, PdG-D-LDH; experiment: product inhibition, DCIP reduction assay; assay type: biochemical
PdG-D-LDH [3] = target: T1, PdG-D-LDH; experiment: X-ray crystal structure of complex (soak); assay type: binding; details: 20 mM D-lactate soaked 10 min; active site, coordinated to Fe(II)
purified protein [4] = substrate: C[C@@H](O)C(=O)O; experiment: purified protein; details: 0.075 mM DCIP as electron acceptor, 100 mM glycine-NaOH, pH 9, 25 °C
purified protein [5] = substrate: C[C@H](O)C(=O)O; experiment: purified protein; details: 0.075 mM DCIP as electron acceptor, 100 mM glycine-NaOH, pH 9, 25 °C
purified protein [6] = substrate: O=C1C=CC(=O)C=C1; experiment: purified protein; assay type: biochemical, Nocardiopsis eucommiae; details: electron acceptor, 20 mM sodium D-lactate, 100 mM phosphate, pH 7.5, 25 °C
[7] = substrate: O=C1C=C(S(=O)(=O)O)c2ccccc2C1=O; experiment: apparent steady-state kinetics, absorbance; assay type: biochemical, Nocardiopsis eucommiae; details: electron acceptor, 20 mM sodium D-lactate, 100 mM phosphate, pH 7.5, 25 °C
From the text: apparent steady-state kinetics, absorbance on PdG-D-LDH

Cc1cc2nc3c(=O)[nH]c(=O)nc-3n(C[C@H](O)[C@H](O)[C@H](O)COP(=O)(O)OP(=O)(O)OC[C@H]3O[C@@H](n4cnc5c(N)ncnc54)[C@H](O)[C@@H]3O)c2cc1C [FAD]
X-ray crystal structure; HPLC of released flavin (PdG-D-LDH [1]): The structure contains a non-covalently bound FAD at the active site.

CC(=O)C(=O)O [pyruvate]
IC50 (PdG-D-LDH [2]): 53 mM

C[C@@H](O)C(=O)O [D-lactate]
X-ray crystal structure of complex (soak) (PdG-D-LDH [3]): a metal ion and the substrate D-lactate (in PdG-D-LDH-lactate complex) are clearly defined

B1: PdG-D-LDH (Nocardiopsis eucommiae) (protein)
chain: MPGVVEELVAAIGTEQVVTDPAVMEGYSHDEAEWAPYGAPAAVVRPRDTADVAAVVRVCARSGVAVVGRGAGTGLSGAANSGRGWVVVSFERMNRVLEVDTVQQTATVQPGVVNDDLRARVAQDGLWYPPDPASAPWSTIGGNVATNAGGLCCVKYGVTRDYVLGMEAVVGTGEVVRLGRTTAKGVTGYDLAGLMVGSEGTLGLVTEVTLRLVPLRRGVEHTVVGYFDSLTDAGRAVAAVSAAGIVPSALELIDRFCLQAVDEWKNMGLSAEGEVLLLARSDLPGASGQEEADRILECFEQEKAVYAVRSTDKEEAEALFQARRLAYPALERLGPLLTEDVCVPKARVPHMLEAIEAAGERFDTRIGNIAHAGDGNLHPLFIVPAGDEEAKRRAKQAFEVIVDEALAVGGTVTGEHGVGLLKMRGAADELGPHVLAMHRAVKGALDPEGIFNPGKVFALEEA
notes: N-terminal His6 tag (pET15b), codon-optimised synthetic gene, E. coli Tuner; no tag cleavage told; homodimer (97 kDa) fraction
Km (purified protein [4]): 1000 ± 100 µM | kcat (purified protein [4]): 8.2 s⁻¹ | kcat/Km (purified protein [4]): 8000 M⁻¹ s⁻¹ | Km (purified protein [5]): 59000 ± 5000 µM | kcat (purified protein [5]): 4.7 s⁻¹ | kcat/Km (purified protein [5]): 79 M⁻¹ s⁻¹ | Km (purified protein [6]): 20 ± 10 µM | kcat (purified protein [6]): 1.8 ± 0.1 s⁻¹ | kcat/Km (purified protein [6]): 80000 ± 30000 M⁻¹ s⁻¹ | Km [7]: 80 ± 10 µM | kcat [7]: 0.95 ± 0.04 s⁻¹ | kcat/Km [7]: 12000 ± 2000 M⁻¹ s⁻¹
